Biological target: human CD16a (Val type) stably expressed on NK-92 cells (NK-92/CD16 transfectant) (human, UniProt P08637 17-254)
Assay: cell-based or functional assay

Chain of human CD16a (Val type) stably expressed on NK-92 cells (NK-92/CD16 transfectant) (P08637 17-254 F176V): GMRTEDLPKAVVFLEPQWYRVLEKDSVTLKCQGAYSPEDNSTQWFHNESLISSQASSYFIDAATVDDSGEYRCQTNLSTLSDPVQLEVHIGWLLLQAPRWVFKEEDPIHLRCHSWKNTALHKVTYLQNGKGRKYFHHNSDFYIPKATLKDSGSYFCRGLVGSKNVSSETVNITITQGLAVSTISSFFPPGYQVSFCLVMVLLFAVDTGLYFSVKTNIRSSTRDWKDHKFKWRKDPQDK

Binder | relative ADCC activity (AAA = 100)
human IgG1 anti-human CCR4 antibody (KM2160), K334E/T359N/T366S (antibody) heavy: EVQLVESGGDLMKPGGSLKISCAASGFIFSNYGMSWVRQTPDMRLEWVATISSASTYSYYPDSVKGRFTISRDNAENSLYLQMNSLRSEDTGIYYCGRHSDGNFAFGYWGRGTLVTVSAASTKGPSVFPLAPSSKSTSGGTAALGCLVKDYFPEPVTVSWNSGALTSGVHTFPAVLQSSGLYSLSSVVTVPSSSLGTQTYICNVNHKPSNTKVDKKVEPKSCDKTHTCPPCPAPELLGGPSVFLFPPKPKDTLMISRTPEVTCVVVDVSHEDPEVKFNWYVDGVEVHNAKTKPREEQYNSTYRVVSVLTVLHQDWLNGKEYKCKVSNKALPAPIEETISKAKGQPREPQVYTLPPSRDELNKNQVSLSCLVKGFYPSDIAVEWESNGQPENNYKTTPPVLDSDGSFFLYSKLTVDKSRWQQGNVFSCSVMHEALHNHYTQKSLSLSPGK light: DVLMTQTPLSLPVSLGDQASISCRSSRNIVHINGDTYLEWYLQRPGQSPKLLIYKVSNRFSGVPDRFSGSGSGTDFTLKISRVEAEDLGVYYCFQGSLLPWTFGGGTRLEIRRTVAAPSVFIFPPSDEQLKSGTASVVCLLNNFYPREAKVQWKVDNALQSGNSQESVTEQDSKDSTYSLSSTLTLSKADYEKHKVYACEVTHQGLSSPVTKSFNRGEC | -110 relative, AAA at 0.1 µg/mL = 100
human IgG1 anti-human CCR4 antibody (KM2160), G316D/A378V/D399E (antibody) heavy: EVQLVESGGDLMKPGGSLKISCAASGFIFSNYGMSWVRQTPDMRLEWVATISSASTYSYYPDSVKGRFTISRDNAENSLYLQMNSLRSEDTGIYYCGRHSDGNFAFGYWGRGTLVTVSAASTKGPSVFPLAPSSKSTSGGTAALGCLVKDYFPEPVTVSWNSGALTSGVHTFPAVLQSSGLYSLSSVVTVPSSSLGTQTYICNVNHKPSNTKVDKKVEPKSCDKTHTCPPCPAPELLGGPSVFLFPPKPKDTLMISRTPEVTCVVVDVSHEDPEVKFNWYVDGVEVHNAKTKPREEQYNSTYRVVSVLTVLHQDWLNDKEYKCKVSNKALPAPIEKTISKAKGQPREPQVYTLPPSRDELTKNQVSLTCLVKGFYPSDIVVEWESNGQPENNYKTTPPVLESDGSFFLYSKLTVDKSRWQQGNVFSCSVMHEALHNHYTQKSLSLSPGK light: DVLMTQTPLSLPVSLGDQASISCRSSRNIVHINGDTYLEWYLQRPGQSPKLLIYKVSNRFSGVPDRFSGSGSGTDFTLKISRVEAEDLGVYYCFQGSLLPWTFGGGTRLEIRRTVAAPSVFIFPPSDEQLKSGTASVVCLLNNFYPREAKVQWKVDNALQSGNSQESVTEQDSKDSTYSLSSTLTLSKADYEKHKVYACEVTHQGLSSPVTKSFNRGEC | -38 relative, AAA at 0.1 µg/mL = 100

Source: patent publication US20230159662A1 (Kyowa Kirin, published 2023)
